Source: publication PMC5148919, “Enhanced production of 2,3-butanediol by engineered Saccharomyces cerevisiae through fine-tuning of pyruvate decarboxylase and NADH oxidase activities” (Biotechnology for Biofuels, 2016)

Assays:
[1] = test system: T1, CtPdc1; test: coupled ADH/NADH assay at […] nm, crude extract, Lineweaver-Burk; assay type: cell-based, Candida viswanathii (printed as Candida tropicalis); details: pH 6.5 imidazole, 30 °C, 5 mM MgCl2, 0.2 mM TPP, 0.4 mM NADH; pyruvate 1.56-100 mM
T1 construct: gene PDC1; full-length ORF from genomic DNA, TDH3 promoter multi-copy plasmid in Pdc-deficient S. cerevisiae SOS5; no tag mentioned; ORF ends NAAQE by primer

[2] = substrate: CC(=O)C(=O)O; test: cells, lysate or membranes; assay type: cell-based, Saccharomyces cerevisiae; details: pH 6.5 imidazole, 30 °C, 5 mM MgCl2, 0.2 mM TPP, 0.4 mM NADH, pyruvate 1.56-100 mM
[3] = substrate: CC(=O)C(=O)O; test: cells, lysate or membranes; assay type: cell-based, Kluyveromyces marxianus; details: pH 6.5 imidazole, 30 °C, 5 mM MgCl2, 0.2 mM TPP, 0.4 mM NADH, pyruvate 1.56-100 mM

Question: `CC(=O)C(=O)O` [pyruvate] was tested. Which Km [1] did it give?
Answer: 2.7 mM

B1: Pdc6 (Saccharomyces cerevisiae S288C) (protein)
chain: SEITLGKYLFERLKQVNVNTIFGLPGDFNLSLLDKIYEVDGLRWAGNANELNAAYAADGYARIKGLSVLVTTFGVGELSALNGIAGSYAEHVGVLHVVGVPSISAQAKQLLLHHTLGNGDFTVFHRMSANISETTSMITDIATAPSEIDRLIRTTFITQRPSYLGLPANLVDLKVPGSLLEKPIDLSLKPNDPEAEKEVIDTVLELIQNSKNPVILSDACASRHNVKKETQKLIDLTQFPAFVTPLGKGSIDEQHPRYGGVYVGTLSKQDVKQAVESADLILSVGALLSDFNTGSFSYSYKTKNVVEFHSDYVKVKNATFLGVQMKFALQNLLKVIPDVVKGYKSVPVPTKTPANKGVPASTPLKQEWLWNELSKFLQEGDVIISETGTSAFGINQTIFPKDAYGISQVLWGSIGFTTGATLGAAFAAEEIDPNKRVILFIGDGSLQLTVQEISTMIRWGLKPYLFVLNNDGYTIEKLIHGPHAEYNEIQTWDHLALLPAFGAKKYENHKIATTGEWDALTTDSEFQKNSVIRLIELKLPVFDAPESLIKQAQLTAATNAKQ
notes: full-length ORF from genomic DNA, TDH3 promoter multi-copy plasmid in Pdc-deficient S. cerevisiae SOS5; no tag mentioned
Question: With B1 as the molecule, how does the Km [2] read?
Answer: 8.2 mM

B2: Pdc5 (Saccharomyces cerevisiae S288C) (protein)
chain: MSEITLGKYLFERLSQVNCNTVFGLPGDFNLSLLDKLYEVKGMRWAGNANELNAAYAADGYARIKGMSCIITTFGVGELSALNGIAGSYAEHVGVLHVVGVPSISSQAKQLLLHHTLGNGDFTVFHRMSANISETTAMITDIANAPAEIDRCIRTTYTTQRPVYLGLPANLVDLNVPAKLLETPIDLSLKPNDAEAEAEVVRTVVELIKDAKNPVILADACASRHDVKAETKKLMDLTQFPVYVTPMGKGAIDEQHPRYGGVYVGTLSRPEVKKAVESADLILSIGALLSDFNTGSFSYSYKTKNIVEFHSDHIKIRNATFPGVQMKFALQKLLDAIPEVVKDYKPVAVPARVPITKSTPANTPMKQEWMWNHLGNFLREGDIVIAETGTSAFGINQTTFPTDVYAIVQVLWGSIGFTVGALLGATMAAEELDPKKRVILFIGDGSLQLTVQEISTMIRWGLKPYIFVLNNNGYTIEKLIHGPHAEYNEIQGWDHLALLPTFGARNYETHRVATTGEWEKLTQDKDFQDNSKIRMIEVMLPVFDAPQNLVKQAQLTAATNAKQ
notes: as for B1
Question: For B2, which Km [2] is on record?
Answer: 9.9 mM

B3: K. marxianus Pdc1 (Kluyveromyces marxianus) (protein)
chain: MSEITLGRYLFERLKQVEVQTIFGLPGDFNLSLLDKIYEVPGMRWAGNANELNAAYAADGYARLKGMACVITTFGVGELSALNGIAGSYAEHVGVLHVVGVPSISSQAKQLLLHHTLGNGDFTVFHRMSSNISETTAMITDINSAPSEIDRCIRTTYISQRPVYLGLPANLVDLKVPASLLETPIDLSLKPNDPEAENEVLETVLELIKDAKNPVILADACCSRHNVKAETKKLIDITQFPAFVTPMGKGSIDEQHPRFGGVYVGTLSSPEVKEAVESADLVLSVGALLSDFNTGSFSYSYKTKNIVEFHSDYIKVRNATFPGVQMKFVLQKLLTKVKDAAKGYKPVPVPHAPRDNKPVADSTPLKQEWVWTQVGKFLQEGDVVLTETGTSAFGINQTHFPNDTYGISQVLWGSIGFTGGATLGAAFAAEEIDPKKRVILFIGDGSLQLTVQEISTMIRWGLKPYLFVLNNDGYTIERLIHGETAQYNCIQSWKHLDLLPTFGAKDYEAVRVATTGEWNKLTTDKKFQENSKIRLIEVMLPVMDAPSNLVKQAQLTASINAKQE
notes: full-length ORF from genomic DNA, TDH3 promoter multi-copy plasmid in Pdc-deficient S. cerevisiae SOS5; no tag mentioned; ORF ends NAKQE by primer
Question: For B3, which Km [3] is on record?
Answer: 7.7 mM

B4: ScPdc1 (Saccharomyces cerevisiae S288C) (protein)
chain: SEITLGKYLFERLKQVNVNTVFGLPGDFNLSLLDKIYEVEGMRWAGNANELNAAYAADGYARIKGMSCIITTFGVGELSALNGIAGSYAEHVGVLHVVGVPSISAQAKQLLLHHTLGNGDFTVFHRMSANISETTAMITDIATAPAEIDRCIRTTYVTQRPVYLGLPANLVDLNVPAKLLQTPIDMSLKPNDAESEKEVIDTILALVKDAKNPVILADACCSRHDVKAETKKLIDLTQFPAFVTPMGKGSIDEQHPRYGGVYVGTLSKPEVKEAVESADLILSVGALLSDFNTGSFSYSYKTKNIVEFHSDHMKIRNATFPGVQMKFVLQKLLTTIADAAKGYKPVAVPARTPANAAVPASTPLKQEWMWNQLGNFLQEGDVVIAETGTSAFGINQTTFPNNTYGISQVLWGSIGFTTGATLGAAFAAEEIDPKKRVILFIGDGSLQLTVQEISTMIRWGLKPYLFVLNNDGYTIEKLIHGPKAQYNEIQGWDHLSLLPTFGAKDYETHRVATTGEWDKLTQDKSFNDNSKIRMIEIMLPVFDAPQNLVEQAKLTAATNAKQ
notes: as for B1
Question: Which Km [2] does the source give for B4 here?
Answer: 4.7 mM
